Assay results as given in FireProtDB (doi:10.1074/jbc.m005861200).

B1: Cytochrome c-551 wild type, P00099 (protein)
chain: MKPYALLSLLATGTLLAQGAWAEDPEVLFKNKGCVACHAIDTKMVGPAYKDVAAKFAGQAGAEAELAQRIKNGSQGVWGPIPMPPNAVSDDEAQTLAKWVLSQK
B2: Cytochrome c-552 wild type, P15452 (protein)
chain: MKKFLLVAVVGLAGITFANEQLAKQKGCMACHDLKAKKVGPAYADVAKKYAGRKDAVDYLAGKIKKGGSGVWGSVPMPPQNVTDAEAKQLAQWILSIK

Conditions: Pseudomonas aeruginosa (strain ATCC 15692 / DSM 22644 / CIP 104116 / JCM 14847 / LMG 12228 / 1C / PRS 101 / PAO1); pH 5; 25 °C; GdnHCl; DSC; Unknown; reversible: yes; whole UniProt chain shown

Row | Protein | denaturant midpoint (higher = more stable) [M]
1 | B1 | 2.16

Same assay, conditions: Pseudomonas aeruginosa (strain ATCC 15692 / DSM 22644 / CIP 104116 / JCM 14847 / LMG 12228 / 1C / PRS 101 / PAO1); pH 5; 47.3 °C; Thermal; DSC; Unknown; reversible: yes; whole UniProt chain shown

Row | Protein | Tm [°C] | heat capacity change of unfolding [kcal/mol/K]
2 | B1 | 47.3 | 1.07

Same assay, conditions: Pseudomonas aeruginosa (strain ATCC 15692 / DSM 22644 / CIP 104116 / JCM 14847 / LMG 12228 / 1C / PRS 101 / PAO1); pH 5; Thermal; DSC; Unknown; reversible: yes; whole UniProt chain shown

Row | Protein | Tm [°C] | heat capacity change of unfolding [kcal/mol/K] | unfolding enthalpy (calorimetric) [kcal/mol]
3 | B1 | 47.3 | 0.72 | 37.7

Same assay, conditions: Hydrogenobacter thermophilus (strain DSM 6534 / IAM 12695 / TK-6); pH 5; 25 °C; GdnHCl; DSC; Unknown; reversible: yes; whole UniProt chain shown

Row | Protein | denaturant midpoint (higher = more stable) [M]
4 | B2 | 4.47

Same assay, conditions: Hydrogenobacter thermophilus (strain DSM 6534 / IAM 12695 / TK-6); pH 5; Thermal; DSC; Unknown; reversible: yes; whole UniProt chain shown

Row | Protein | Tm [°C] | heat capacity change of unfolding [kcal/mol/K] | unfolding enthalpy (calorimetric) [kcal/mol]
5 | B2 | 87.5 | 0.9 | 36.7
